# Results as given in patent publication US20220340682A1 (Sanofi, published 2022).
# Numbering of substitutions follows the chain as printed. Several values for one entry are separate records, joined by “and”; a condition that tells them apart may be missing. Equal values may be shown once.
# T1: hCEACAM5, human CEACAM5 ECD (35-685) (human, UniProt P06731 35-685)
# T1 construct: produced in HEK293; also called human CEACAM5 protein; human CEACAM5 extracellular domain
# T1 sequence: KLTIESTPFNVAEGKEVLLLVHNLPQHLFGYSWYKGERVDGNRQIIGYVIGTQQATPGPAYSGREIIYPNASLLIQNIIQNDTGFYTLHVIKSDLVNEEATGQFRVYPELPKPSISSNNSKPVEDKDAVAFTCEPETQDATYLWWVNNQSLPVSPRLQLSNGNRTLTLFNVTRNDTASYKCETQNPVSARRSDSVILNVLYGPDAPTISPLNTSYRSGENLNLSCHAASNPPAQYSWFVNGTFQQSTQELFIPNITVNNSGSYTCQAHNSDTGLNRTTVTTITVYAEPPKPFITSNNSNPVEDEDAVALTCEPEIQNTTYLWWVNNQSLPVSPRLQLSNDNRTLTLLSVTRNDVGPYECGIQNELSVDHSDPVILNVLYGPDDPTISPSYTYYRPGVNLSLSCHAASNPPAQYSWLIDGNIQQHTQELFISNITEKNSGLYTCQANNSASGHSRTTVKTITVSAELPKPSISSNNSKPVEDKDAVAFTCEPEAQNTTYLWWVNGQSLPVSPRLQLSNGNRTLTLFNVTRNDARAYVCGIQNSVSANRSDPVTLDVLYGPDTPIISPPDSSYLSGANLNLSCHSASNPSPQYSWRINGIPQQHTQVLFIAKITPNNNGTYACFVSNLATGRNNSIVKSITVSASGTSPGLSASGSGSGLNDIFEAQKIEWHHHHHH
# T2: cCEACAM5, M. fascicularis CEACAM5 ECD (35-688) (Macaca fascicularis)
# T2 construct: ECD followed by a 24 amino acid extension containing a His-Tag; also called cynomolgus CEACAM5; monkey CEACAM5
# T2 chain: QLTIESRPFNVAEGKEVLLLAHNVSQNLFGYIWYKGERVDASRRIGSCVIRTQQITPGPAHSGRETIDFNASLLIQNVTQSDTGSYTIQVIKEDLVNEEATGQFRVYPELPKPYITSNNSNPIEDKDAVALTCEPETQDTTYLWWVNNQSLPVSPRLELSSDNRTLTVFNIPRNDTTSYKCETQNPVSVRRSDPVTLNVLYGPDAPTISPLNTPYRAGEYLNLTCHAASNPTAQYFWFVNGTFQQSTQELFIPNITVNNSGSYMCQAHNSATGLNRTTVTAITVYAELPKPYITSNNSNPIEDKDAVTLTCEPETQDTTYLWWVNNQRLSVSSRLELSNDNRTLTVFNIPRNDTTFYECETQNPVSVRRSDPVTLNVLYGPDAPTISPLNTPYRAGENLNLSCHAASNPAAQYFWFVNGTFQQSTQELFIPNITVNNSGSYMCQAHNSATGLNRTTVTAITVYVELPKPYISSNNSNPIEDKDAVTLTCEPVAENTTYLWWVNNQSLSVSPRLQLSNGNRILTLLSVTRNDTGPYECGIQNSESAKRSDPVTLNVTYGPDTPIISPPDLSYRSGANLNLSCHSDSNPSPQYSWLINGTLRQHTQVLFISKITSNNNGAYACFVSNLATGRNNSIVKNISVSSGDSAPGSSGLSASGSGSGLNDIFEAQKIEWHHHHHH
# T3: human CEACAM5 expressed on the surface of tumor cells (human, UniProt P06731 35-685)
# T3 construct: Endogenous CEACAM5 of human tumor cells; also called hCEACAM5 on MKN45 cells; CEACAM5 on CR-IGR-034P primary colon tumor cells
# T3 sequence: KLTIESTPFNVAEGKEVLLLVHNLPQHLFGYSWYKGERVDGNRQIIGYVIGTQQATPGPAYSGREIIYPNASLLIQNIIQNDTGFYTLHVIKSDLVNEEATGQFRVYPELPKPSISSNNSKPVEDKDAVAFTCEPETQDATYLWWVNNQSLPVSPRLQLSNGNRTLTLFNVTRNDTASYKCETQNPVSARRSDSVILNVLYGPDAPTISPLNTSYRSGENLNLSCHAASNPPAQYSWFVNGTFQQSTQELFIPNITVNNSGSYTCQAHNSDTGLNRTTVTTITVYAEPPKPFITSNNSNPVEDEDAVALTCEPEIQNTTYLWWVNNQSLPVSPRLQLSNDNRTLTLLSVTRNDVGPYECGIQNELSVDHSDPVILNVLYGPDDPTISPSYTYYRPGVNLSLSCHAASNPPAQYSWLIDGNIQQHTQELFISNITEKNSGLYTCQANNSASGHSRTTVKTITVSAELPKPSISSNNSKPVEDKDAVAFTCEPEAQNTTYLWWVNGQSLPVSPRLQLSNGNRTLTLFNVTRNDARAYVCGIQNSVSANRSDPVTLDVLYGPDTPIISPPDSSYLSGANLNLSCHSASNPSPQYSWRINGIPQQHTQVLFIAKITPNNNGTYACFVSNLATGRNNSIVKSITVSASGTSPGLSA
# B1: chMAb2 (antibody, human IgG1, kappa, V domains shown)
# VH: EVQLQESGGVLVKPGGSLKLSCAASGFVFSSYDMSWVRQTPEKRLEWVAYISSGGGITYFPDTVQGRFTVSRDNAKNTLYLQMNSLKSEDTAIYYCAAHYFGSSGPFAYWGQGTLVTVSA
# VL: DIQMTQSPASLSASVGETVTITCRASENIFSYLAWYQQKQGKSPQLLVYNTKTLAEGVPSRFSGSGSGTQFSLKINSLQPEDFGSYYCQHHYGTPFTFGSGTKLEIKR
# notes: Chimeric, human IgG1, Ck isotype; also called MAb2-IgG1; chimeric MAb2
# B2: antibody MAb4 (antibody, IgG1, V domains shown)
# VH: EVQLVESGGGLVKPGGSLKLSCAASGFTFSSYDMSWVRQTPEKRLEWVAFISSYGGRTYYADTVKGRFTISRDNAKNTLYLQMSSLKSEDTAMFYCAAHYFGTSGPFAYWGQGTLVTVSA
# VL: DIQMTQSPASLSASVGETVTITCRASENIYSYFAWYQQKQGKSPQLLVYNAKILAEGVPSRFSGSGSGTQFSLKINSLQPEDFGTYYCQHHYGIPFTFGSGTKLELK
# notes: Murine monoclonal from hybridoma, IgG1, kappa
# B3: antibody MAb5 (antibody, IgG1, V domains shown)
# VH: ELQLVESGGVLVKPGGSLKLSCAASGFAFSSYDMSWVRQTPEKRLEWVTYINSGGGITYYPDTVKGRFTISRDNARNTLYLQMSSLKSEDTAIYYCTAHYFGSSGPFAYWGQGTLVTVSA
# VL: B2 VL with F33L, I53T, A55T, T85S, I94T, L106I
# notes: as for B2
# B4: antibody MAb1 (antibody, IgG1, V domains shown)
# VH: EVMLVESGGGLVKPGGSLKLSCAASGFTFSSYAMSWVRQTPEKRLEWVATISSGGSYIYYLDSVKGRFTISRDNAKNTLYLQMSSLRSEDTAMYYCARPAYYGNPAMDYWGQGTSVTVSS
# VL: DILMTQSQKFMSTSVGDRVSVTCKASQNVGTNVAWYQQKPGQSPKPLIYSASYRYSGVPDRFTGSGSGTDFTLTISNVQSEDLAEYFCQQYNSYPLYTFGGGTKLEIK
# B5: antibody MAb3 (antibody, IgG1, V domains shown)
# VH: EVKLVESGGGLVKPGGSLTLPCAASGFTFSRYAMSWVRQTPEKRLEWVASISSGGDTYYPDSVKGRFTVSRDNARNILFLQMSSLRSEDTGMYYCARVNYYDSSFLDWWGQGTTLTVSS
# VL: B4 VL with L3V, K9R, S14L, V15E, P46A, S93N
# notes: as for B2
# Target: T1, hCEACAM5, human CEACAM5 ECD (35-685)
# Experiment: ELISA, chimeric mAb
row,Binder,EC50
1,B1,0.16 nM and 0.14 nM

# Target: T2, cCEACAM5, M. fascicularis CEACAM5 ECD …
# Experiment: ELISA, chimeric mAb
row,Binder,EC50
1,B1,0.13 nM and 0.17 nM

# Target: T1, hCEACAM5, human CEACAM5 ECD (35-685)
# Experiment: ELISA, coated CEACAM5
# Experimental: (§1) All CEACAM5-specific mAbs were assessed for their ability to bind human and primate CEACAM5 protein by ELISA. Plates were coated with human or primate CEACAM5 protein, anti-hCEACAM5 mAbs were added to the plate and detected with rabbit anti-mouse IgG conjugated with horseradish peroxidase (Sigma; # A9044). The antibody binding was visualized by adding TMB-H2O2 buffer and read at a wavelength of 450 nm.
row,Binder,EC50 [nM]
1,B2,0.08
2,B3,0.4
3,B4,0.53
4,B5,0.36

# Target: T2, cCEACAM5, M. fascicularis CEACAM5 ECD …
# Experiment: ELISA, coated CEACAM5
# Experimental: as §1
Binder,EC50 [nM],Ratio c/h (EC50 on cCEACAM5 against EC50 on hCEACAM5)
B2,0.05,0.6
B3,0.45,1.1
B4,1.18,2.2
B5,3.72,10

# Target: T3, human CEACAM5 expressed on the surface …
# Experiment: flow cytometry on MKN45 cells
# Experimental: The apparent affinity of anti-CEACAM5 antibodies to hCEACAM5 expressed on the surface of human MKN45 (DSMZ, ACC 409) tumoral cells were determined by Guava® easyCyte™ 8HT Flow Cytometry System. MKN45 tumoral cells were coated at 40,000 cells/well on 96-well High Bind plate (MSD L15XB-3) and 100 μL/well of anti-CEACAM5 antibodies were added in 2-fold serial dilutions starting at 20 μg/ml up to 12 dilutions in assay diluant for 45 min at 4° C. and washed three times with PBS 1% BSA. 100 μL/well of goat anti-mouse IgG conjugated with Alexa647 (Invitrogen; # A2135) was added for 45 min at 4° C. and washed three times with PBS 1% BSA. The antibody binding was evaluated after centrifugation and resuspension of cells by adding 200 μl/well PBS 1% BSA and read using Guava® easyCyte™ 8HT Flow Cytometry System. Apparent KD and EC₅₀ values were estimated using BIOST@T-BINDING and BIOST@T-SPEED softwares, respectively.
row,Binder,EC50 [nM]
1,B2,4.9
2,B3,0.73
3,B4,16
4,B5,6.2
